Experimental data published in patent publication US20250002564A1.

How the values were obtained:
[1] = target: mouse FcRn (mouse) (UniProt Q61559); assay: pH 5.6
[2] = target: mouse FcRn (mouse) (UniProt Q61559)
[3] = target: mouse FcγRI (mouse) (UniProt P26151)
Chain of mouse FcγRI (mouse) (P26151 25-297 limits assumed): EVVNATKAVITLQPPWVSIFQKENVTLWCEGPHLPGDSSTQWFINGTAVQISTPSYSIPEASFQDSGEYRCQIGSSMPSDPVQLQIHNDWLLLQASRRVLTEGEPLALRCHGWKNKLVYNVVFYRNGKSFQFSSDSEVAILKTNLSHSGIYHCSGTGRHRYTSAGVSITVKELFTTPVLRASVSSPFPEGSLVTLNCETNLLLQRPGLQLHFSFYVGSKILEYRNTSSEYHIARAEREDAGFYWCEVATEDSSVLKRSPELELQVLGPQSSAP

Chain of mouse FcRn (mouse) (Q61559 22-297 limits assumed, chain 1 of 2): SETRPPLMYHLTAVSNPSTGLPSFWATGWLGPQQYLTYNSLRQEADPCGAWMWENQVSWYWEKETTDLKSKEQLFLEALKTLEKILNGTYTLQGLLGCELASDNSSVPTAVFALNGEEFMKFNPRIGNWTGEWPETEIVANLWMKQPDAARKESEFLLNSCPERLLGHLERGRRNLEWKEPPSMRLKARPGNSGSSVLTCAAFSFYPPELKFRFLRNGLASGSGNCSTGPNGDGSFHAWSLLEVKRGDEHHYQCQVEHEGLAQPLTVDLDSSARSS
Chain of mouse FcRn (mouse) (chain, as listed by the source limits assumed, chain 2 of 2): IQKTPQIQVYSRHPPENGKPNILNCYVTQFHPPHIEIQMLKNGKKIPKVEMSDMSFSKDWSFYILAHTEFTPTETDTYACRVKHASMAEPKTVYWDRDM

Row | Substance | Kd [1] | koff [1] | kon [2] | Kd [3] | koff [3] | kon [3]
1 | mouse surrogate Multabody (HD37 IgG2a scFab and scFc on mouse apoferritin light chain), wild-type Fc | < 1 pM | < 1e-07 s⁻¹ | 682000 M⁻¹ s⁻¹ | < 1 pM | < 1e-07 s⁻¹ | 939000 M⁻¹ s⁻¹
2 | mouse surrogate Multabody with LALAP Fc | < 1 pM | < 1e-07 s⁻¹ | 2.4e+06 M⁻¹ s⁻¹ | – | – | –
